Laboratory results taken from patent publication US20130177979A1, “METHODS AND COMPOSITIONS FOR CELL PERMEABLE STAT3 INHIBITOR” (University of Central Florida Research Foundation, Inc., priority 2010, published 2013).

Key:
[1] = biological target: GpYIKTE (Stat1 pY701 peptide); test: SPR (SensiQ), His-tagged protein immobilised on HisCap chip, pTyr peptide as analyte
[2] = biological target: GpYLPQTV (IL-6R/gp130-derived pTyr peptide); test: as above
[3] = biological target: GpYVKPQ (pTyr peptide of Stat5); test: as above
[4] = biological target: PEpYINQS (pY1068 peptide of EGFR); test: as above
[5] = biological target: PVpYHNQP (pY1086 peptide of EGFR); test: as above
[6] = biological target: PpYLKTK (Stat3-derived pTyr705 peptide); test: as above
[7] = biological target: GpYVKPQ (pTyr peptide of Stat5); test: SPR (SensiQ); His-tagged Stat3 SH2 domain immobilised on a HisCap sensor chip, GpYVKPQ passed over as analyte; sensorgram shown at 100 µM
[8] = biological target: 5-carboxyfluorescein-GpYLPQTV-NH2; test: Fluorescence polarization saturation curve; 10 nM 5-carboxyfluorescein-GpYLPQTV-NH2 probe with increasing purified His-Stat3

Kd [1] [µM] | Kd [2] [µM] | Kd [3] [µM] | Kd [4] [µM] | Kd [5] [µM] | Kd [6] [µM] | Kd [7] [µM] | EC50 (read off the curve) [8] [µM] | Substance
6.6 | 0.03 | 5200 | 0.4 | 2.6 | 1.6 | 5140 | – | His-tagged Stat3 SH2 domain
– | 0.02 | – | – | – | – | – | 0.1 | His-tagged Stat3 (full-length Stat3)
